Paper PMC5397884 (Biochemistry, 2017)
“And” between values parts separate entries of the source, which are not always exact repeats. Identical values can stand only once. Where no end group is shown, it is not given here.

Experiments:
[1] = biological target: GmPOPB-S577A (inactive mutant) (Galerina marginata) (UniProt H2E7Q8); assay: ITC; 200 uM peptide in the syringe titrated into 20 uM protein in the cell; 20 °C; 50 mM Tris (pH 8.0), 50 mM NaCl, 10 mM DTT; single-site model, n fixed at 1.0
[2] = test system: CC[C@H](C)[C@H](N)C(=O)N[C@@H](Cc1c[nH]c2ccccc12)C(=O)NCC(=O)N[C@H](C(=O)NCC(=O)N[C@@H](CS)C(=O)N[C@@H](CC(N)=O)C(=O)N1CCC[C@H]1C(=O)N[C@@H](Cc1c[nH]c2ccccc12)C(=O)N[C@H](C(=O)N[C@@H](C)C(=O)N[C@@H](CCC(=O)O)C(=O)N[C@@H](Cc1c[nH]cn1)C(=O)N[C@H](C(=O)N[C@@H](CC(=O)O)C(=O)N[C@@H](CCC(N)=O)C(=O)N[C@H](C(=O)N[C@@H](CC(C)C)C(=O)N[C@@H](C)C(=O)N[C@@H](CO)C(=O)NCC(=O)N[C@@H](CC(N)=O)C(=O)N[C@@H](CC(=O)O)C(=O)N[C@H](C(=O)N[C@@H](CS)C(=O)O)[C@@H](C)CC)[C@@H](C)O)C(C)C)[C@@H](C)O)[C@@H](C)CC; assay: purified protein, by the assay type; conditions: 50 mM NaCl, 10 mM DTT, duplicate
His680 = His680 (UniProt position 680, DTKAGHGAGKP); assay: other (titration of the catalytic histidine; the title of ref 41 indicates inhibitor binding); conditions: cited from earlier work
GmPOPB [3] = biological target: T1, GmPOPB (Galerina marginata, UniProt H2E7Q8); assay: biochemical; conditions: Figure S10, fit to Equation S4; activity normalized to no inhibitor (100%) and 50 µM recognition sequence (0%)
T1 construct: His tag (TEV-cleavable) (cleaved yes); made in house; host or cells: E. coli BL21(DE3)

GmPOPB [4] = biological target: T1, GmPOPB; assay: Global fitting by numerical integration of quenched-flow and stopped-flow data; assay type: biochemical; conditions: read-out: k–5 (tail association), Kintek best-fit
[5] = biological target: GmPOPB–tail complex (GmPOPB-S577A pre-mixed with the peptide tail) (Galerina marginata) (UniProt H2E7Q8); assay: stopped-flow tryptophan fluorescence; analytical fitting; excitation 285 nm, emission above 320 nm; 20 °C; 50 mM Tris-HCl (pH 8.0), 50 mM NaCl, 10 mM DTT; constants calculated from rate constants; Kov is an apparent dissociation constant for a two-step binding process
[6] = biological target: GmPOPB–tail complex (GmPOPB-S577A pre-mixed with the peptide tail) (Galerina marginata) (UniProt H2E7Q8); assay: stopped-flow tryptophan fluorescence; global fitting by numerical integration (KinTek Global Kinetic Explorer) of stopped-flow binding and quenched-flow turnover data together; 20 °C; k1/k-1 and k5/k-5 linked by the ITC Kd values; k4 and k-4 fixed at best-fit values
porcine POP = conditions: cited from earlier work
[7] = biological target: T2, Prolyl oligopeptidase B from Galerina marginata (GmPOPB) (Galerina marginata, UniProt H2E7Q8 1-730); assay: stopped-flow tryptophan fluorescence; 2 μM GmPOPB, peptide tail 0.5-20 μM, 20 °C; this experiment fitted individually by numerical integration (KinTek Global Explorer, Fitspace boundaries), no constraints; conditions: both partners purified
T2 sequence (looked up): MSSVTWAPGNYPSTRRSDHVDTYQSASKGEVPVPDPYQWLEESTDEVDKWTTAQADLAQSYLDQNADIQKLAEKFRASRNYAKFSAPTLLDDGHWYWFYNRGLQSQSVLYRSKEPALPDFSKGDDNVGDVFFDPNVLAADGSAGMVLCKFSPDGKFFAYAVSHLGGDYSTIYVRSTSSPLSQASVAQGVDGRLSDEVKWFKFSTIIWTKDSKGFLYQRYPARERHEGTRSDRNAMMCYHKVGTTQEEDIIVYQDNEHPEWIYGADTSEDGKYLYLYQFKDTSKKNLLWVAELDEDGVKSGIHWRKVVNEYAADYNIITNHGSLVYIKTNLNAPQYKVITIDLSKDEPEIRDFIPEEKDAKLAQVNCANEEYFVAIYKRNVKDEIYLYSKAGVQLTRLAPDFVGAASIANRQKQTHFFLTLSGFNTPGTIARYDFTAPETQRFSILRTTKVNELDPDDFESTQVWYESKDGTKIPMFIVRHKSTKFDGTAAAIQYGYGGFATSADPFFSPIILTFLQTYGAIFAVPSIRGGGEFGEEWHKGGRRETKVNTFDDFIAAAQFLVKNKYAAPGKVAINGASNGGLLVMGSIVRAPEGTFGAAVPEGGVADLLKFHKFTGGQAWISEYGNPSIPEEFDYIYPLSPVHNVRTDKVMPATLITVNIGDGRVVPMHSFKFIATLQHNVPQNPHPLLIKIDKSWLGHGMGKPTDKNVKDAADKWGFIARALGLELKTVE

[8] = biological target: T2, Prolyl oligopeptidase B from Galerina …; assay: stopped-flow tryptophan fluorescence; 2 μM GmPOPB, peptide tail 0.5-20 μM, 20 °C, excitation 285 nm, emission above 320 nm; analytical fitting (replots of kobs and of amplitudes against tail concentration); conditions: both partners purified
[9] = biological target: T2, Prolyl oligopeptidase B from Galerina …; assay: as above; conditions: both partners purified; remark: listed apart in the source
[10] = biological target: T3, Prolyl oligopeptidase B from Galerina marginata (GmPOPB) (Galerina marginata, UniProt H2E7Q8 1-730); assay: ITC; 200 uM peptide in the syringe titrated into 20 uM protein in the cell; 20 °C; 50 mM Tris (pH 8.0), 50 mM NaCl, 10 mM DTT; single-site model, n fixed at 1.0; conditions: both partners purified
T3 sequence (looked up): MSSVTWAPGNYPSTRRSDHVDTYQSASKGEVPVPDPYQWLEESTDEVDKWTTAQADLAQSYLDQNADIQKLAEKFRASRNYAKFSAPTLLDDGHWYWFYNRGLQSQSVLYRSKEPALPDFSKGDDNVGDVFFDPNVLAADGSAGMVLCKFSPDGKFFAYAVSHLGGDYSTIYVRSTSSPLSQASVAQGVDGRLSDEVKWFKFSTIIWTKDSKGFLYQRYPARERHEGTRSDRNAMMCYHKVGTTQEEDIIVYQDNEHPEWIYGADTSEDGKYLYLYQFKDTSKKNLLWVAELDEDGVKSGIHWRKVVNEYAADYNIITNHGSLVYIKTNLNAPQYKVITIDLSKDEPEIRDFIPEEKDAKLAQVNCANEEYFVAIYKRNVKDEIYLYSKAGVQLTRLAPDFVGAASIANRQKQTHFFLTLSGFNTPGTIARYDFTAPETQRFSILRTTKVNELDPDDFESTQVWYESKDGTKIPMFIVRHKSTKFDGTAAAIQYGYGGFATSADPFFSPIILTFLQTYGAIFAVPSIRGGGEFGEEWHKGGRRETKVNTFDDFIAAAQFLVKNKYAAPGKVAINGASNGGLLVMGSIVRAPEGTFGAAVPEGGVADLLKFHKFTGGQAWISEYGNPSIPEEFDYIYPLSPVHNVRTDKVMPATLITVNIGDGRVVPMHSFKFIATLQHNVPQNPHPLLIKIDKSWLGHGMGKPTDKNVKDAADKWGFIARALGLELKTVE

[11] = biological target: T3, Prolyl oligopeptidase B from Galerina …; assay: as above; conditions: both partners purified; remark: listed apart in the source
[12] = biological target: T3, Prolyl oligopeptidase B from Galerina …; assay: stopped-flow tryptophan fluorescence; analytical fitting; excitation 285 nm, emission above 320 nm; 20 °C; 50 mM Tris-HCl (pH 8.0), 50 mM NaCl, 10 mM DTT; constants calculated from rate constants; Kov is an apparent dissociation constant for a two-step binding process; conditions: both partners purified
[13] = biological target: T3, Prolyl oligopeptidase B from Galerina …; assay: stopped-flow tryptophan fluorescence; global fitting by numerical integration (KinTek Global Kinetic Explorer) of stopped-flow binding and quenched-flow turnover data together; 20 °C; k1/k-1 and k5/k-5 linked by the ITC Kd values; k4 and k-4 fixed at best-fit values; conditions: both partners purified
[14] = other: 20 °C, 50 mM Tris-HCl (pH 8.0), standard error, 20.0 °C

Molecule: 25mer peptide substrate of GmPOPB (core plus peptide tail of the amanitin precursor)
- stoichiometry N [1]: 1

Molecule: GmPOPB (Galerina marginata CBS 339.88)
- Km [2, 14]: 55 µM and 55.4 ± 18.6 µM
- kcat [2, 14]: 0.23 ± 0.03 s^–1
- Km ([2]; other: H2O, 37 °C, 50 mM Tris (pH 8.0), LC–MS, 37.0 °C): 51 µM

Molecule: Prolyl oligopeptidase (prolyl endopeptidase, POP) (Sus scrofa)
- pKa (His680): 6.25

Molecule: WTAEHVDQTLASGNDIC [peptide tail]
- IC50 (GmPOPB [3]): 320 ± 100 nM
- kon (GmPOPB [4]): 3.22e+06 ± 10000 M⁻¹ s⁻¹

Molecule: eight-amino acid cyclic peptide product of the GmPOPB macrocyclization reaction
- Kd [5]: 99.2 nM
- k3 (slower step of the two-step binding, direction of release of the cyclic peptide) [6]: 12.3 s^–1
- k4 (fast bimolecular step of the two-step binding, dissociation of the cyclic peptide) [6]: 100 s^–1
- k-3 (slower step of the two-step binding, direction of binding of the cyclic peptide) [6]: 0.78 μM^–1 s^–1
- k-4 (fast bimolecular step of the two-step binding, association of the cyclic peptide) [6]: 60 μM^–1 s^–1

Molecule: porcine POP: Sus scrofa (porcine) prolyl oligopeptidase
- activation energy, porcine POP (porcine POP; depending on the substrate used): 14 to 20 kcal mol^–1
- pKa (first), porcine POP (porcine POP; dipeptide substrate): 5
- pKa (second), porcine POP (porcine POP; dipeptide substrate): 7
- pKa (third), porcine POP (porcine POP; dipeptide substrate): 9.5
- pKa of catalytic His680, porcine POP (porcine POP; titration of the catalytic histidine): 6.25

B1: Peptide tail (WTAEHVDQTLASGNDIC) (peptide)
peptide: WTAEHVDQTLASGNDIC
- koff [7]: 0.58 s⁻¹
- kon [7]: 4.69e+06 M⁻¹ s⁻¹
- koff [8]: 3.54 s⁻¹
- kon [8]: 4.84e+06 M⁻¹ s⁻¹
- Kd [9]: 322 ± 37.5 nM

B2: peptide tail (17-amino acid C-terminal recognition sequence) (peptide)
peptide: WTAEHVDQTLASGNDIC
- stoichiometry N [10]: ~1
- Kd [11]: 442 nM
- Kd [12]: 731 nM
- koff [13]: 1.44 s⁻¹
